Data published in patent US6835378B2, “Method and compositions for inhibiting thrombin-induced coagulation” (The Texas A&M University System University, priority 2001, dated 2004).
Entries after “also recorded” stand apart in the source; their conditions may differ.

Columns and labels:
Fg Bβ chain = target: T1, Fg Bβ chain (Homo sapiens, UniProt P02675); experiment: Western ligand blot with biotin labeled rSdrG(50-597); format: binding
T1 construct: recognized the mature recombinant Bβ chain (residues 1-462); made in house; host or cells: E. coli
T1 sequence (P02675 31-491): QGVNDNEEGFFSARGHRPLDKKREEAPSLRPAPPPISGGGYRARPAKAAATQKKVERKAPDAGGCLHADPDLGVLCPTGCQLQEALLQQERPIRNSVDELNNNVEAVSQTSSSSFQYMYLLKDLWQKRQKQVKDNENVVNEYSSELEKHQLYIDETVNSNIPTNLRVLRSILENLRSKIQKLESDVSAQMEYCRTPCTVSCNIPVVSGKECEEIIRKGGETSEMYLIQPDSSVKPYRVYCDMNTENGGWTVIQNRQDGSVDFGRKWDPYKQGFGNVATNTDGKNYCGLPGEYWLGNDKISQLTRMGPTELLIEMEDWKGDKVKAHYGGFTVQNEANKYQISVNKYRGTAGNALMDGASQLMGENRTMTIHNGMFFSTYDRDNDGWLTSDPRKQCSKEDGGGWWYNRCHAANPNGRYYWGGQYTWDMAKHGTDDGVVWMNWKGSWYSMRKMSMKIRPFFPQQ
Source text: Construction of Fg Bβ Chain Truncates—An E. coli strain harboring plasmid p668 which contains the cDNA for the Fg Bβ chain was kindly provided by Dr. Susan T. Lord (University of North Carolina, Chapel Hill, N.C.). The 1525 bp fragment from p668 was subcloned into the plasmid pQE30 to produce recombinant mature Bβ chain with a N-terminal His-tag. Additional Bβ chain constructs (FIG. 3A) were made by subcloning into either pQE30 or pGEX-KG (Pharmacia) to produce recombinant proteins with a N-terminal His-tag or Glutathione S-transferase (GST) fusion.
Western Ligand Blot Analysis—Whole E. coli lysates harboring each respective Fg Bβ chain construct were fractionated by SDS-PAGE and the separated proteins were transferred to nitrocellulose membrane with a semi-dry transfer cell (Bio-Rad). The membrane was incubated overnight with 5% (w/v) non-fat dry milk in PBS, pH 7.5 at 4° C. to saturate non-specific binding sites. After blocking, the membrane was washed three times with PBST and then incubated with biotin labeled rSdrG(50-597) (0.5 μM) for 1 h at room temperature. rSdrG(50-597) was biotin labeled using EZ Link-sulfo-NHS-LC biotin (Sigma) according to the manufacturers' instructions. After three more washes with PBST, the blot was incubated with a 1:5000 dilution of streptavidin-AP conjugated for 1 h at room temperature and developed with 5-bromo-4-chloro-3-indolyl phosphate (BCIP) and nitro blue tetrazolium (NBT) (Biorad) in carbonate:bicarbonate buffer (14 mM Na2CO3, 36 mM NaHCO3, 5 mM MgCl2:6H2O, pH 9.8) for ˜15 min at room temperature.

[1] = tested on: thrombin catalyzed release of fibrinopeptides A and B; experiment: Release of fibrinopeptides by thrombin, HPLC; format: biochemical; settings: for Percentage of FpB released: Fg 0.3 μM
Description: Release of Fibrinopeptides by Thrombin—The thrombin catalyzed release of fibrinopeptides A and B was analyzed as follows. Fg solutions were diluted to 0.3 μM in 20 mM HEPES (pH 7.4), 150 mM NaCl, 5 mM ε-aminocapriotic acid, and 1.0 mM CaCl2. ε-aminocapriotic acid was included to inhibit any possible plasmin contaminant activity. […] The tubes were mixed by inversion and 500 μl aliquots were removed for the 15 and 60 min time points. The aliquots were incubated at room temperature and then immersed in boiling water for 15 min to halt the reaction. The aliquots were stored on ice for the remainder of the time course. At the end of the reaction the samples were centrifuged for 15 min at 4° C., and the supernatants were removed and stored at −20° C. overnight prior to analysis by high performance liquid chromatography.
The fibrinopeptides released were monitored by reverse phase HPLC essentially as described (19). The samples were loaded onto a Waters Delta-Pak C18 column equilibrated with buffer A (25 mM NaH2PO4/Na2HPO4, pH 6.0). Fibrinopeptides were eluted with a linear gradient from 100% buffer A to 40% buffer B (Buffer A with 50% acetonitrile) and monitored by absorbance at 205 nm. Fibrinopeptide peak area was determined using the software Waters Millennium^32.

B1: rSdrG(50-597): recombinant His-tagged A region (residues 50-597) of SdrG, a fibrinogen-binding MSCRAMM from S. epidermidis (protein)
chain: HHHHHHAEENTVQDVKDSNMDDELSDSNDQSSNEEKNDVINNSQSINTDDDNQIKKEETNSNDAIENRSKDITQSTTNVDENEATFLQKTPQDNTQLKEEVVKEPSSVESSNSSMDTAQQPSHTTINSEASIQTSDNEENSRVSDFANSKIIESNTESNKEENTIEQPNKVREDSITSQPSSYKNIDEKISNQDELLNLPINEYENKVRPLSTTSAQPSSKRVTVNQLAAEQGSNVNHLIKVTDQSITEGYDDSDGIIKAHDAENLIYDVTFEVDDKVKSGDTMTVNIDKNTVPSDLTDSFAIPKIKDNSGEIIATGTYDNTNKQITYTFTDYVDKYENIKAHLKLTSYIDKSKVPNNNTKLDVEYKTALSSVNKTITVEYQKPNENRTANLQSMFTNIDTKNHTVEQTIYINPLRYSAKETNVNISGNGDEGSTIIDDSTIIKVYKVGDNQNLPDSNRIYDYSEYEDVTNDDYAQLGNNNDVNINFGNIDSPYIIKVISKYDPNKDDYTTIQQTVTMQTTINEYTGEFRTASYDNTIAFSTSSGQGQGDLPPE
binding to truncates lacking the N-terminal 25 residues, rβ(25-95) and rβ(25-195) (Fg Bβ chain; 0.5 μM biotin labeled protein): failed to bind | recognition of recombinant Bβ chain (1-462) and truncates 1-341, 1-220, 1-195, 1-95 (Fg Bβ chain; 0.5 μM biotin labeled protein): recognized | recognition of Fg chains (Fg Bβ chain; native Fg chains, data not shown): recognized the Bβ chain, but not the Aα or γ chains of Fg | FpA release by thrombin [1]: no apparent interference | FpB release by thrombin ([1]; 1:1 ratio of rSdrG(50-597) to Fg): significant decrease | FpB release by thrombin ([1]; 5:1 ratio (1.5 μM rSdrG(50-597))): decrease in the amount of FpB released; also recorded: effectively able to inhibit the release of FpB | Percentage of FpB released ([1]; SdrG:Fg 1:1, 15 min): 65.4% | Percentage of FpB released ([1]; SdrG:Fg 1:1, 60 min): 45.2% | Percentage of FpB released ([1]; SdrG:Fg 2:1, 15 min): 13.9% | Percentage of FpB released ([1]; SdrG:Fg 2:1, 60 min): 17.4% | Percentage of FpB released ([1]; SdrG:Fg 5:1, 15 min): <0.001% | Percentage of FpB released ([1]; SdrG:Fg 5:1, 60 min): <0.001%
